Earlier results, collected in patent publication US6896870B1, “Diagnostic probes and therapeutics targeting uPA and uPAR” (Angstrom Pharmaceuticals, Inc., priority 1999, dated 2005).
Bridge positions count the residues as written; N and C are the ends. Ends that are not written are not given here.

Target: uPAR (Homo sapiens, UniProt Q03405)
Conditions: read-out: IC50, prevention of uPA binding to uPAR

Sequence of uPAR (Q03405 23-305): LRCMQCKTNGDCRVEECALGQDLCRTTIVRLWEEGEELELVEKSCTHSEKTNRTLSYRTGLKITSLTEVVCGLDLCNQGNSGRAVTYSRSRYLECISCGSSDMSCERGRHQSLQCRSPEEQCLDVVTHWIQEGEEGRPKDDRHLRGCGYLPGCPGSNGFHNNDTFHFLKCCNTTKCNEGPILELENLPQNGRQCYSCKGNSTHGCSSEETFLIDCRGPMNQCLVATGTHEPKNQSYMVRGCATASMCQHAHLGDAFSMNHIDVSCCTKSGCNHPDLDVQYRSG

| Substance | IC50 [nM] |
| --- | --- |
| [Ala^19]uPA(12-32) [[Ala^19]uPA(12-32) open chain form] (DCLNGGTAVSNKYFSNIHWCN; UniProt P00749 32-52, looked up, variant C19A) [uPA GFD peptide with two cysteines, the third cysteine replaced by Ala] | 100 |
| [Ala^19]uPA(12-32) [[Ala^19]uPA(12-32) oxidized cyclic form] (DCLNGGTAVSNKYFSNIHWCN; disulfide 2-20 (inferred); UniProt P00749 32-52, looked up, variant C19A) [same peptide cyclised by intrachain disulfide bond] | 40 |
